Test results reported in publication PMC10872493.
“And” between values parts separate entries of the source, which are not always exact repeats. Equal values may be shown once.

Columns and labels:
[1] = target: CP α1N44C β2E84C, labeled with donor and acceptor dyes (single-molecule FRET construct) (mouse) (UniProt Q5RKN9); assay: single-molecule FRET titration
[2] = target: CP α1S9C β2S161C, labeled with donor and acceptor dyes (single-molecule FRET construct) (mouse) (UniProt Q5RKN9); assay: single-molecule FRET titration

Row | Kd [1] | Kd [2] [nM] | Substance
1 | 10 nM and 11 nM |  | CKIP-1 CPI-motif peptide
2 |  | 1.4 | WASHCAP CPI-motif peptide
